From US20230293704A1, “Compositions and Methods for Tendon Regeneration” (University of Rochester, priority 2022, published 2023)
No end group written: not given here. *: point of attachment. PSMA‑b‑PS = poly(styrene-alt-maleic anhydride)-b-poly(styrene) polymer; Alloc = C=CCOC(=O)*

B1: TBP-NPs prepared by carbodiimide tagging of pre-formed PSMA-b-PS nanoparticles with Alloc-protected-lysine TBP (peptide)
peptide: TPLSYLK(Alloc)GLVTVG
modifications: not fully specified; printed as TPLSYLKAllocGLVTVG; also: ['coupled to PSMA-b-PS nanoparticles by carbodiimide amide bond']
B2: TRAP binding peptide nanoparticles (TBP-NPs) prepared by anhydride ring-opening conjugation of Alloc-protected TBP to PSMA-b-PS polymer (peptide)
peptide: {PSMA‑b‑PS}-TPLSYLKGLVTVG-OH
modifications: not fully specified (residue 7); printed as TPLSYLKAllocGLVTVG; also: Lys7 Alloc-protected during conjugation, removal not given here

Experiments:
TRAP [1] = target: T1, TRAP (Homo sapiens, UniProt P13686); assay: In vitro binding assay of TBP-NPs and SCP-NPs to TRAP (fluorescamine readout); conditions: NPs exposed to TRAP in serial dilutions, incubation 2 hours; read-out: Binding Affinity (Kd)
T1 sequence (P13686 22-325): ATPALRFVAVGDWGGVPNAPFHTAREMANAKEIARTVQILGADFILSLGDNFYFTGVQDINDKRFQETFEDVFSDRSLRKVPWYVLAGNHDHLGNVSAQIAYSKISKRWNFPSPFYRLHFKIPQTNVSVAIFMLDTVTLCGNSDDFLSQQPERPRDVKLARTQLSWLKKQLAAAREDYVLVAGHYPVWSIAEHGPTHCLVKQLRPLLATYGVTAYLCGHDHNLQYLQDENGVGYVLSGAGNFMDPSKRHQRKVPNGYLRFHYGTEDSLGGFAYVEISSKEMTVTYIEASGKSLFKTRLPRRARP
Excerpt: (§1) Polymer-peptide conjugates were self-assembled into nanoparticles via solvent exchange from dimethylformamide (DMF) to water using a syringe pump. Dynamic light scattering (DLS) was used to characterize the size and zeta potential of TBP-NPs and SCP-NPs. An in vitro binding assay that involved exposure of TBP-NPs and SCP-NPs to TRAP in serial dilutions was used to determine the binding affinity of TBP-NPs and establish their efficacy for in vivo applications. Specifically, after exposure of TBP-NPs to TRAP and incubation for 2 hours, fluorescamine, a spiro compound that reacts with primary amines to form highly fluorescent compounds, was added to the reaction. The protein-dye complex was excited with UV LED (365 nm) and emitted at 470 nm on a Cytation 5 Imaging Multimode Reader. The binding affinity (Kd) and maximum binding (Bmax) were then calculated to determine the efficacy of the synthesized TBP-NPs (FIG. 1 C-D).

[2] = Dynamic light scattering characterization of nanoparticle size; type: physicochemical; conditions: nanoparticles, DLS
Excerpt: as §1

TRAP [3] = target: T1, TRAP; conditions: known from the art; cited from earlier work
S100a4 = conditions: Sack et al. 2011; cited from earlier work
[4] = target: tartrate resistant acid phosphatase (TRAP); assay: in vitro binding assay, NPs exposed to TRAP in serial dilutions, 2 h incubation, fluorescamine fluorescence readout

| Molecule | Diameter (nm) [2] | Dispersity for Size [2] | other results |
| --- | --- | --- | --- |
| ARO-TBP-Alloc: TBP-NPs from anhydride ring-opening conjugation of Alloc-protected-lysine TBP to PSMA-b-PS polymer, then self-assembly (TPLSYLKGLVTVG-OH; not fully specified (residue 7, N-terminus); printed as TPLSYLKAllocGLVTVG; also: ['conjugated to PSMA-b-PS polymer by anhydride ring-opening']) | 32 ± 2 nm | 0.1 ± 0.1 | Kd (TRAP [1]): 186 µM |
| TPLSYLKGLVTVG [TBP, TPLSYLKGLVTVG (SEQ ID NO: 1), peptide known to home to TRAP] |  |  | affinity for TRAP (TRAP [3]): sub-nanomolar affinity |
| CDI-TBP: TBP-NPs made by carbodiimide coupling of free (unprotected) TBP to PSMA-b-PS nanoparticles (TPLSYLKGLVTVG; not fully specified; also: ['coupled to PSMA-b-PS nanoparticles by carbodiimide amide bond']) | 66 ± 3 nm | 0.4 ± 0.1 |  |
| CDI-TBP-Alloc: TBP-NPs made by carbodiimide coupling of Alloc-protected-lysine TBP to pre-formed PSMA-b-PS nanoparticles (TPLSYLK(Alloc)GLVTVG-OH; also: coupled to PSMA-b-PS nanoparticle by amide bond (carbodiimide), site not given here) | 33 ± 3 nm | 0.2 ± 0.1 | Kd (TRAP [1]): 468 µM |
| O=C(Nc1ccc([N+](=O)[O-])cc1Cl)c1cc(Cl)ccc1O [Niclosamide] |  |  | effect on S100a4 gene and protein expression (S100a4): inhibit the S100a4 gene and protein expression |
| B1 |  |  | Kd [4]: 468 µM |
| B2 |  |  | Kd [4]: 186 µM |
